# Assay results published in patent US20240068024, “NUCLEIC ACID FRAGMENT AND USE THEREOF” (KYUSHU UNIVERSITY, NATIONAL UNIVERSITY CORPORATION, published 2024).
# How the values were obtained:
# Tn5 transposase = Tn5 transposase (UniProt Q46731 Q46731:1-476); assay: in situ transposition, 5 mM MgCl2, TAPS-DMF pH 8.5, 37 C; library band 200-400 bp; conditions: chain copies: 2 (stated, dimer)
# Method: PBS was removed, 100 μL of a Tn5 solution (150 ng/well in 1×Tn5 dialysis buffer) was added thereto, and the mixture was allowed to stand at room temperature for 1 hour. The composition of the 1×Tn5 dialysis buffer was formed of 50 mM HEPES-KOH (pH 7.2), 0.1 M NaCl, 0.1 mM EDTA, 1 mM DTT, 0.1% Triton X-100, and 10% glycerol. As a result, the transposase was bound to the transposase binding sequence of the double-stranded nucleic acid fragment of each ChIL probe.
# Subsequently, the 1×Tn5 dialysis buffer was removed, […] of a 1×TAPS-DMF buffer (10 mM TAPS-NaOH (pH 8.5), 5 mM MgCl₂, 10% N,N-dimethylformamide) was added thereto, and the mixture was allowed to stand at 37° C. for 1 hour. With this, the transposase bound to the double-stranded nucleic acid fragment of the ChIL probe was activated, and the double-stranded nucleic acid fragment of the ChIL probe was inserted in the vicinity of the binding region of the lysine 27 acetylation modified histone H3 on the genomic DNA.
# T7 RNA polymerase = T7 RNA polymerase (UniProt P00573 P00573:1-883); assay: in situ transcription after Tn5 insertion in mouse liver section, library band 200-400 bp; 37 C overnight; no UV needed
# Sequence of T7 RNA polymerase (P00573 whole entry, one chain of several): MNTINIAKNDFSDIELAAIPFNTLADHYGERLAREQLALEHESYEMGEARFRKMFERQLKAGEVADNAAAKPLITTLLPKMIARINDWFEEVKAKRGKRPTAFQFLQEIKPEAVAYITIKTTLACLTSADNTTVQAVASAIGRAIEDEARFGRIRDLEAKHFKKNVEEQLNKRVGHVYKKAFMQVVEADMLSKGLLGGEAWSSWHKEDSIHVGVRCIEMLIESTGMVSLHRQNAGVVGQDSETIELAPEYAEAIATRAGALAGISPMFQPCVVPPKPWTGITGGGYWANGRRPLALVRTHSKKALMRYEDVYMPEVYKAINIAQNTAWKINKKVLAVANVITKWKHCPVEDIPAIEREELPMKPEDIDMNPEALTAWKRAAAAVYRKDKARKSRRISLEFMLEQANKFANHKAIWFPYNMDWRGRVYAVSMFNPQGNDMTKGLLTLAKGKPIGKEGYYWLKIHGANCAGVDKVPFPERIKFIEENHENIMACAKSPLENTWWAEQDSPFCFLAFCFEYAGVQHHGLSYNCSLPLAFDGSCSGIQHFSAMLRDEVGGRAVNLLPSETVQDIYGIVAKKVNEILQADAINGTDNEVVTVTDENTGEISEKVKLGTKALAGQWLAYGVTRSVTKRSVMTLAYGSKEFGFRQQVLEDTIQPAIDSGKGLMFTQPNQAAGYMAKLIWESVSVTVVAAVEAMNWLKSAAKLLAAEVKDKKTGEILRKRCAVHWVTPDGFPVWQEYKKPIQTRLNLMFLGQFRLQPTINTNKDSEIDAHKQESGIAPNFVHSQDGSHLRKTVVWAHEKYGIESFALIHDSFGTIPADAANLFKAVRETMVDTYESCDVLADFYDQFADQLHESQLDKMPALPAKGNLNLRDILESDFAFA
# Sequence of Tn5 transposase (Q46731 whole entry, the tested form may be a part, one chain of several): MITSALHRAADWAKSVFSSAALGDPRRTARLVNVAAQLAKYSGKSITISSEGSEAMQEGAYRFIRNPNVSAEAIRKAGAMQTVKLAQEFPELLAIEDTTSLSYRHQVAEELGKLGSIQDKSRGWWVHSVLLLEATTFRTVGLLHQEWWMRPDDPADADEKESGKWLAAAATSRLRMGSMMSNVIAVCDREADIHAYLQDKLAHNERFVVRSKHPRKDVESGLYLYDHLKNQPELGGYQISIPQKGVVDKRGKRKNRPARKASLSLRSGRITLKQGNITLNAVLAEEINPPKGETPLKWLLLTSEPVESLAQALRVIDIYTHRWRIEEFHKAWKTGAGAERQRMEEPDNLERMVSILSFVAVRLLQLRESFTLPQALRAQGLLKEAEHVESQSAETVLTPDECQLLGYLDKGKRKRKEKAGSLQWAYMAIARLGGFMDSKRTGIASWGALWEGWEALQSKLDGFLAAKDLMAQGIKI
binder,measurement,setting,value
"control ChIL probe (original) (dsDNA, 5'-azide on SEQ 1 (click-linked to DBCO-PEG5 anti-mouse IgG); 5'-phosphate on SEQ 2) DNA 1: CCCATGCATTAATACGACTCACTATAGGGTAGATCGCTCGTCGGCAGCGTCAGATGTGTATAAGAGACAG DNA 2: CTGTCTCTTATACACATCTGACGCTGCCGACGAGCGATCTACCCTATAGTGAGTCGTATTAATGCATGGG",binding result,Tn5 transposase,binds
same,binding result,T7 RNA polymerase,binds
